Experimental data reported in article PMC7033129, “Structural basis for substrate specificity and catalysis of α1,6-fucosyltransferase” (Nature Communications, 2020).

Target: the molecule itself
Assay: crystal structure; C2 crystals of HsFUT8 with 5 mM GDP and 5 mM G0, 1.95 Å; two molecules in the asymmetric unit, each forming a dimer with a molecule of the neighbouring asymmetric unit

B1: human α1,6-fucosyltransferase (HsFUT8), residues 68–575 (enzyme, UniProt Q9BYC5 68-575, looked up)
chain: RIPEGPIDQGPAIGRVRVLEEQLVKAKEQIENYKKQTRNGLGKDHEILRRRIENGAKELWFFLQSELKKLKNLEGNELQRHADEFLLDLGHHERSIMTDLYYLSQTDGAGDWREKEAKDLTELVQRRITYLQNPKDCSKAKKLVCNINKGCGYGCQLHHVVYCFMIAYGTQRTLILESQNWRYATGGWETVFRPVSETCTDRSGISTGHWSGEVKDKNVQVVELPIVDSLHPRPPYLPLAVPEDLADRLVRVHGDPAVWWVSQFVKYLIRPQPWLEKEIEEATKKLGFKHPVIGVHVRRTDKVGTEAAFHPIEEYMVHVEEHFQLLARRMQVDKKRVYLATDDPSLLKEAKTKYPNYEFISDNSISWSAGLHNRYTENSLRGVILDIHFLSQADFLVCTFSSQVCRVAYEIMQTLHPDASANFHSLDDIYYFGGQNAHNQIAIYAHQPRTADEIPMEPGDIIGVAGNHWDGYSKGVNRKLGRTGLYPSYKVREKIETVKYPTYPEAEK
notes: α1,6-fucosyltransferase (FUT8), human, amino acid residues 68–575 (coiled-coil, catalytic and SH3 domains); Expressed from pHLSec-12His-GFP-TEV-HsFUT8 after the vector's secretion signal; His-GFP cut off with TEV protease before crystallisation; Crystallised with GDP and the N-glycan G0; source: HEK293F, transfected, secreted into the supernatant, purified (His-Trap, TEV cleavage, second …)
B1: binds.
